Experimental data taken from publication PMC10397247.

How the values were obtained:
Assay in all cases: two-hybrid library CCmax;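 also: natural log of median RNA to DNA barcode read ratio; higher means stronger binding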
Conditions in all cases: mean of both orientations
4H3020-AA = molecular target: T1, 4H3020-AA
T1 chain: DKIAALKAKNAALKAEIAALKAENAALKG

4H535-AA = molecular target: T2, 4H535-AA
T2 chain: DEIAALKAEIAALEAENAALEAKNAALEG

4H58-AA = molecular target: T3, 4H58-AA
T3 chain: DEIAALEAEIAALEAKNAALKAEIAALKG

4H3409-AA = molecular target: T4, 4H3409-AA
T4 chain: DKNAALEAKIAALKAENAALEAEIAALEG

4H2713-AA = molecular target: T5, 4H2713-AA
T5 chain: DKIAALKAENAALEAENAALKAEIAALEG

4H3417-AA = molecular target: T6, 4H3417-AA
T6 chain: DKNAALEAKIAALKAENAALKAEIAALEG

P6-AA-1HGe-Q = molecular target: T7, P6-AA-1HGe-Q
T7 chain: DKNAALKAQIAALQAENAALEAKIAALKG

O4-AA = molecular target: T8, O4-AA
T8 chain: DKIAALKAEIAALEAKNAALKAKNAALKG

P5-AA-1HAA-Y = molecular target: T9, P5-AA-1HAA-Y
T9 chain: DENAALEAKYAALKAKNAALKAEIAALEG

4H2290-AA = molecular target: T10, 4H2290-AA
T10 chain: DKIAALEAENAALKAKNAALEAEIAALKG

APC9319-AA = molecular target: T11, APC9319-AA
T11 chain: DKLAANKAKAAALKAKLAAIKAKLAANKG

4H733-AA = molecular target: T12, 4H733-AA
T12 chain: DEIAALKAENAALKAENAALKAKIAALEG

B1: 4H1257-AA (peptide)
chain: DENAALEAENAALKAKIAALKAEIAALEG
4H3020-AA
  interaction score: -1.1
4H535-AA
  interaction score: -1.14
4H58-AA
  interaction score: -1.21

B2: 4H1350-AA (peptide)
chain: DENAALEAKIAALKAEIAALEAKIAALKG
4H3409-AA
  interaction score: -1.11

B3: 4H1064-AA (peptide)
chain: DENAALEAEIAALEAKIAALEAKNAALKG
4H2713-AA
  interaction score: -1.48
4H3417-AA
  interaction score: -1.43

B4: 4H1401-AA (peptide)
chain: DENAALEAKIAALKAKNAALKAEIAALEG
P6-AA-1HGe-Q
  interaction score: 2.02

B5: 4H171-AA (peptide)
chain: DEIAALEAENAALEAKIAALKAENAALEG
O4-AA
  interaction score: -0.185

B6: 4H3606-AA (peptide)
chain: DKNAALKAEIAALEAENAALEAKIAALKG
P5-AA-1HAA-Y
  interaction score: 2.23

B7: 4H1845-AA (peptide)
chain: DENAALKAKIAALEAKNAALEAKIAALEG
4H2290-AA
  interaction score: -1.92
APC9319-AA
  interaction score: -1.55
4H733-AA
  interaction score: -1.33
